Data from the DeepSol protein solubility set.

Assay: soluble on expression in E. coli; label from the status in PepcDB or PDB records
In the case of “MPVAISLPTSSTSHFFPRRRGHANHRYQRFSGAQSSTEDPYIRKNQTGVIIIGAGLAGLAAANQLTSKRIPFLLLEASDGVGGRVRTDIVDGFFLDRGFQIFITAYPEAKKLLDYEALDLQRFYAGAKVFYGGKFHTVADPLRHFWDSVASLANPIGSVVDKGLIALTRARVLIKSDEEILTAADEVPTIDLLRKIGFSETILDRFFRPFFGGIFFDRDLETTSKLFDFVFRCLALGENTLPAMGIGEISNQLAAKLPAKSVLLNTRVASIEYPNGSGSDPPSVRLQDGSVMKAELGVIIAVEQPEVNKLLDGIRDPVITKPARSTICLYFTAEPNQIPVQDPVLFLNGSNSGIINNMFFATNVARTYAPPGKALVSVSLIGLFEDRTDDDLAAEVLRELSGWFGESPVMSWKHLKTYRIQFAQPNQCPPTDLVKSPRVGSGLYLSGDYMTSATFDGALVSGRRAVEVLLRETGLIK”, the “soluble on expression in E. coli” value is reported as “soluble”. In the case of “MGSDKIHHHHHHMAKGLFDRYIWLIDTIYRAGKITFEEINKRWLRTEMSNGEEIPLRTFHNHRKAIETMFDINIECNKRAGYYYYIENADDIDKDKIKKWLLNTFAINNLANESHRLKQRILFEDIPSGKQYLSSIIEAMLENRIIEITYQSYWKEEANTFTIEPFCVKVFKQRWYIIARSPYYDTIMIYALDRIQNLQVTDITFNYPSDFDPQSYFEFSFGIVVDEICNIDKIRIKVYGKKCQYIKALPLHHSQSEVETTKSYSIFEYLLKPTYDFCQELLSHGDEIEVLSPTSLKEQIKEIVKNMSRYYN”, the “soluble on expression in E. coli” value is reported as “not soluble”. With “MGSDKIHHHHHHMRMPEMMFLQGNEACALGAIKAGCRFFAGYPITPSTEIAEVMARELPKVGGVFVQMEDEIASAAAVVGASLAGVKSMTATSGPGFSLIQEVIGYAIMTETPCVFANVMRLGPSTGLPTKPAQGDIMQTRWGTHGDHAIIALYPSSVAEVYRYIITAFNLAEEYRTPVVFLMDAMLGHMRESFYPPKDEELFIIERLKDTSFGEEDLFVPFSESEYAEPTPFPMAEMGKTKFHVSGLVHDESGFPLSSPDAAEKLIRRLTNKIRLHADEIAFYEEYETEDAEILVVAYGIVARSAMKAVKIARRDRIKVGLFKPITIWPAPVSRFRKLAEKVNTIVIAEMNLGQYAKELISSIDRRSKVIRTINKVNGELIKPEEILDVITETQIEI” the “soluble on expression in E. coli” value was “not soluble”. In the case of “MNERGMLVDPRFDAFFKLEQIDDYKYDGADTSPSTSNGLPETSNGGRLICDVCGDVAFGKHYGINACNGCKGFFRRSVWSRRQYSCRFGGDCPVVKEHRNVCRSCRLKKCFEVGMNPDSVQNERDRNAKNGGMGGPMSSPTQSSLCKELTISNGQIKRKRLRPETVEKTTQTDGKLEINDDFDFENMQQNPTPPGLLPLKIERISTPPSDLPVPMDFSIHSAVLDIEQKVFYNCPVAVDNSINATKTPITLPFEVVFRQPHLVCNRYPMRFSNTRVLTPEDLIDGWRRHFTYYSDWCHAMDEFKALSPEDQIVLAKKKIILHGWLVHAYYSYKSGCNGICFANGAAHLPEGGHPSITEFYKECMPRYLNYVIYPMHNFQMDDAEMVLIKCIMFFSSESGLSAAGRQIVSAAREKYLSALYNYGRANKCTTSAQATLRIAKFMIMLSAITSLTHLMNEGVHVTSLFNIIEFDELIQATHKTTPPQHSPPAPMG”, the “soluble on expression in E. coli” value is reported as “not soluble”. With “MAHHHHHHMKPTPLRGQPGLSRNGEGHNDRATSAASHLWARGARTQSPRRGQKESIATRTAVNNGGGPTHAATTRRSAQASRRTSTRYFKLPDAIAEKGEGAFSPTEPDCGATVLRHPASGRRHEEGEQGGSGIVCDVGVGAEKVAGGRLTTLRRTRGQPNKEASRTAFSMATDDVAPPTRLQYARMPRPMSQMNRTPLGVAVLGLQKIAARSETKRTRPLKRKRRINLPAAGPNGSDGLHSDLRG” the “soluble on expression in E. coli” value was “soluble”. For “KRVFGFVSAKGGDGGSCIAANFAFALSQEPDIHVLAVDISLPFGDLDMYLSGNTHSQDLADISNASDRLDKSLLDTMVQHISPSLDLIPSPATFEKIVNIEPERVSDLIHIAASFYDYIIVDFGASIDHVGVWVLEHLDELCIVTTPSLQSLRRAGQLLKLCKEFEKPISRIEIILNRADTNSRITSDEIEKVIGRPISKRIPQDEDAMQESLLSGQSVLKVAPKSQLSKTIVDWALHLNGVSRPNKRSIWERLKIK”, the “soluble on expression in E. coli” value was “soluble”. In the case of “SEEYDTNFYKKLFDAMFVNEDELKEMGKDPKEYMENLLKEAEEKSLKEKMELYKKYNVIEIDSLEDEYQSTAEGYGNLEDVKKFIQKYDINGVYDGYTLLYTYSGYRGETNIIEFLIENNADIYKKSINGKTPLYSAVDDYFYDAAEVILKHYKDNDDINDEFLLAVNNENEPMLRILLKKKFLFFGNKFKMNLDKGLEIALDKGNKDIAAELVLSGAKTDNFLYYFK”, the “soluble on expression in E. coli” value is reported as “not soluble”. In the case of “MGSDKIHHHHHHMINQIYQLTKPKFINVKYQEEAIDQENHILIRPNYMAVCHADQRYYQGKRDPKILNKKLPMAMIHESCGTVISDPTGTYEVGQKVVMIPNQSPMQSDEEFYENYMTGTHFLSSGFDGFMREFVSLPKDRVVAYDAIEDTVAAITEFVSVGMHAMNRLLTLAHSKRERIAVIGDGSLAFVVANIINYTLPEAEIVVIGRHWEKLELFSFAKECYITDNIPEDLAFDHAFECCGGDGTGPAINDLIRYIRPQGTILMMGVSEYKVNLNTRDALEKGLILVGSSRSGRIDFENAIQMMEVKKFANRLKNILYLEEPVREIKDIHRVFATDLNTAFKTVFKWEV”, the “soluble on expression in E. coli” value is reported as “not soluble”. For “MRITIVTIFPEMVEVIKKYGVIARAVERGIVEINVENLRDYTTDRHRTVDDYQYGGGYGMVMKPEPFFRFYESYVEKYGKPYVILTSPQGRIFNYKIAEELSKKDDIVIFCGRYEGIDERVMSIVDDEISIGDYILTGGELPAMVITDAVVRLVPGVVERESVERESFHQGLLDHPVYTRPYEYKGMKVPDVLLSGDHEKVELWRRKESIKKTLAKRPDLFLAKELDEMDKLAIIELFRELMEKC”, the “soluble on expression in E. coli” value was “soluble”. With “MGSDKIHHHHHHMQNLHIFGEQKKTDWVIFENLEKVESKTLTEEGSAIRLNSGKYRKLKAISSVDPDVLYSTCKQFLPLNELEVLNKWEPSWGKVREDILNSKVELWNQCMHESACQYAPEVVSTKAYWKSVQQHIWFCTSSSELKEDIRTCFMLDFYITVQKEGRTKQSNLTRSWLSPINVQEEDLQELVLYTANAAMEKLDARPFPSGSYALILGPLAAPGIFHEVVGHGLEADIASIPQSAFHQRLGAMVGCEKVTIIDDPTKEGLPGSYSLDDEGTIAQQTTLIEKGRVVNYLSHLHTGHPTNGHGRVINYQHLPLVRMSNTFLLPGTDDPEEMVSDTEVGLYVKKAINGDVNMITGEFEIHVAEGYLIEKGQITSPILPTTLKGDGQKLLQSIDRVGNDFAIHSEVRGGCGKLGQSPLPVSAGSPTVRVLDWYVKGADR” the “soluble on expression in E. coli” value was “not soluble”. For “MAIFRDQAENHVEHDRSIEDRRRHRQLVEKSIKENLGDILSEESIIGETKNKKYKIPIRGIKEYQFIYGANNKGVTTGTGEERRGDRISSDKRKAISNNKAGNQEGKDIYETEITLEELMDYIVEDLDLPNLDRKKYSEIIVESAAKKRGYQKYGVRPRLAKKKTVMCKIARKQGKKRALREIGEEAEIGRFPFREDDLRYYKVKKHPKKESNAVMIFIMDVSGSMDNTKKYLARSFFFVLSRFIRRKYNNVAFEFISHTTTAKNVNEYEFFHKGESGGTYISSGINAAIDLIKEKYNPGVWNIYPFYASDGDNWSEDNEKAMEAVNEISDLSNMFGYIELLPSTYSTTMFYRFKKEISKENFVSVTVKEKKDLWNAIKYMLSEELQEKNKELEHHHHHH”, the “soluble on expression in E. coli” value was “not soluble”. With “MGSDKIHHHHHHMTLRERRQKHKAQFRQEILDASRELFSQIGYERFSMRKLAAKIEHSPTTIYLYFRDKDDLLYSLCEELFAKLFQSYQDISRGENDPRQVLRLCLLRYIEFGLANPGHYKVAFFTSPVVYGSPTEFLQKDSMGRRTYFHILRTVEETMAAGMLRPMDADLLAQTVWVAAHGVVTSRIYSADFPMVDAVLQAETLVDGLLAGFSVKNFFGTNIYTVN” the “soluble on expression in E. coli” value was “not soluble”. In the case of “MSLNLAKRILQGEQLTKETVLKIYEDTNIDTLDLLNEAYILRKHYFGKKVKLNMILNAKSGICPENCGYCGQSRDIKQKQRYALIPEEQIIDGAKVAHDNHIGTYCIVMSGRGPSDKEVDHISNTVRTIKSQHPQLKICACLGLTNDEQAKKLKSAGVDRYNHNINTSENYHDNVVTTHSYKDRTDTIELMKANNISPCSGVICGMGESNQDIVDMAFALKEMDADSIPINFLHPIKGTKFGSMDDLTPMKCLRIVALFRLINPTKEIRIAGGREVNLRSLQPLALKAANSIFVGDYLITGGQPNQLDYDMINDLGFEIDYDTCENKENKNDVSRANEGHHHHHH”, the “soluble on expression in E. coli” value is reported as “soluble”. In the case of “MMRIGIIARFDVAEAVEIAERVASFLLNRGVEITVDLKLTEELPQLREYGEDIRNMDADMILTIGGDGTILRTRSLIEDKEIPILGINMGTVGFLTEVDPENVFSALEAVLRGEYAVEKRTLLSVYHNDELPSALNEVVLMTRRPAKMLHIEISVDDEVVEELRADGIIIATPSGSTAYSMSAGGPIVDPRVEAFLIVPICPFKLSARPLVVSNKSVIRVKLLRKGKKAIAVIDGQYEEEINHMDEVIFRKSERKAHFVRLSKDFYRKVREKLIEGGIDSIKG”, the “soluble on expression in E. coli” value is reported as “soluble”. With “MPRALNDRSSALTAQNLIALPERFGCPVWAYDGDIIAERINQLRHFDVIRFAQKACSNIHILRLMREQGVKVDSVSLGEIERALHAGYQPGQEPAEIVFTADLLDQATLLRVTELNIPVNAGSIDMLDQLGQQAPGHPVWLRVNPGFGHGHSQKTNTGGENSKHGIWHEELPRALKKIEHYGLTLVGIHMHIGSGVDYQHLEQVCDAMVQQVITLGHDISAISAGGGLSIPYQFGDDVIDTEHYYGLWNSARERIAAHLGHPVSLEIEPGRFLVAESGVLIAQVRAVKDMGRRHYVLVDAGFNDLMRPAMYGSYHHISLLPADGRDLTSAPLIDTVVAGPLCESGDVFTQQEGGGVETLALPAAVIGDYLVFHDTGAYGASMSSNYNSRPLLPEVLFEKGQPRLIRRRQTIEELIDLERV” the “soluble on expression in E. coli” value was “not soluble”. For “DVQLQASGGGLVQPGGSLRVSCAASGFTFSSYHMAWVRQAPGKGLEWVSTINPGDGSTYYADSVKGRFTISRDNAKNTLYLQMNSLKSEDTAVYYCAKYSGGALDAWGQGTQVTVSSQSEQKLISEEDLNHHHHH”, the “soluble on expression in E. coli” value was “soluble”. With “EMEEREIINNVFEFGDMQAKNAMVQRIDMVAIDMEDSYDEIIQVFKTEKLSRMPVYEETIDDIVGILNIKDIIFLSDEEIESFDIKNYMREPFFTYEFKKITQLLEEMKLEKSQMAIVVDEYGGTSGLLTIEDLVEVIVGDIE” the “soluble on expression in E. coli” value was “soluble”. In the case of “MSEISAIWERIEAWHAANDQTENLNPGATAEALAQAEKDMGLTFPPEMRESLLRHDGSVDDSWPTGELLSLERMADERKVWMDLLQDGTFDGNASHNESSEALQPGWWNPAWIPLDADGGGNGAVIDLAPGPQGTVGQVIDMDHEVGPSGPKYVSLAAYLEAMLERLSEAEE”, the “soluble on expression in E. coli” value is reported as “soluble”. In the case of “GSHEATVEYLADLVKEKKHLTLFPHMFSNVERLLDDEIGRVRVALFQTEFPRVELPEPAG”, the “soluble on expression in E. coli” value is reported as “soluble”. In the case of “MSLEAKRPEQTRVVVGMSGGVDSSVTALLLKEQGYDVIGIFMKNWDDTDENGVCTATEDYQDVVQVCNQLGIAYYAVNFEKEYWDKVFTYFLEEYKAGRTPNPDVMCNKEIKFKAFLNHALTLGADYVATGHYAQVKNVDGQYQLIRGKDPNKDQTYFLNALSQQQLSRVMFPLGHLEKKEVRAIAERAGLATAKKKDSTGICFIGKRDFKEFLSSYLPAQPGEMQTLDGEVKGTHDGLMYYTLGQRQGLGIGGSGEPWFVIGKNLEKNILYVGQGFHHPGLYSEGLRAIKVNWILRRESDEPFECTAKFRYRQPDQKVTVYPQSDGAVEVLFAEPQRAITPGQAVVFYDGDVCLGGGTIDHVLKKKEDRESAEGHHHHHH”, the “soluble on expression in E. coli” value is reported as “soluble”.
